Test results as given in patent publication US20210054097A1 (Novo Nordisk, published 2021).
Residue numbers refer to the chain shown, from its start.

B1: Nb 701C06 (VHH)
VHH: EVQLVESGGGVVQPGGSLRLSCAASGRTFSTYAMGWFRQAPGKEREFVAAISRRGGRTYYADSVKGRFTISRDNSKNTVYLQMNSLRPEDTALYYCAADATARDGLLDYWGQGTLVTVSS
notes: monovalent Nanobody; not shown: C-terminal FLAG3 and HIS6 tag
B2: Nb 702C12 (VHH)
VHH: B1 VHH with A23V, T31R, R57S, Y59N, A100Y, T101S, A102S, R103G, L106Y
notes: as for B1
B3: Nb 701D07 (VHH)
VHH: EVQLVESGGGVVQPGGSLRLSCAASGGTLSRYAMGWFRQAPGKEREFVAAITRRGSRTYYADSVKGRFTISRDNSKNTVYLQMNSLRPEDTALYYCAADLAPGDYALDYWGQGTLVTVSS
notes: as for B1
B4: Nb 701B09 (VHH)
VHH: B1 VHH with R53W, R54S, G56S, A102P, R103A, D104N, L106E
notes: monovalent Nanobody; also called Nb 701609; not shown: C-terminal FLAG3 and HIS6 tag

target: T1, human plasma-derived Factor X zymogen (human, UniProt P00742 41-179; P00742 183-488); experiment: SPR steady state, Nb captured by anti-His mAb, FX injected
T1 construct: Plasma-derived, bought (Haematologic Technologies); also called FX; human FX
Method: Binding of purified anti-FX Nanobodies (Nb) to human plasma-derived FX (Haematologic Technologies Inc, USA) was probed by Surface Plasmon Resonance (SPR) (Biacore T200). Briefly, anti-His mAb (MAB050 from R&D systems) was immobilised on a CM4 sensor chip using standard amine coupling chemistry. Anti-FX Nanobodies (10 nM), according to Table 3, was injected at a flow rate of 10 μL/min for 1 minute. Subsequently 4096, 1024, 256, 64, 16, 4, and 0 nM of FX were injected at a flow rate of 30 μL/min for 4 minutes to allow for binding to anti-FX Nb followed by a 5 minutes running buffer (10 mM HEPES, 150 mM NaCl, 5 mM CaCl₂, 0.05% (v/v) Surfactant P20, 1 mg/mL bovine serum albumin, pH 7.4) injection allowing dissociation from anti-FX Nanobody®. The running buffer was also for dilution of anti-FX Nb and FX samples. Regeneration of the chip was achieved using a regeneration buffer consisting of 3M MgCl₂, 30 seconds contact time, and a 30 μL/min flow rate. The binding data were collected at 25° C. and were analysed according to a 1:1 model using BiaEvaluation 4.1 supplied by the manufacturer (Biacore AB, Uppsala, Sweden).
Therefore, the reported KD values are determined based on steady state analysis. The strongest binder identified is Nb702C12, while the others Nanobodies® tested binds FX with a slightly higher KD and lower Rₘₐₓ.

T1 sequence (P00742 41-179, chain 1 of 2): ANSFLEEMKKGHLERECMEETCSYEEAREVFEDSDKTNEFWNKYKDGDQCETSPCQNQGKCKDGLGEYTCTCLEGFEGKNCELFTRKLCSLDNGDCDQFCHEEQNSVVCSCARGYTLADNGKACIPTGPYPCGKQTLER
T1 sequence (P00742 183-488, chain 2 of 2): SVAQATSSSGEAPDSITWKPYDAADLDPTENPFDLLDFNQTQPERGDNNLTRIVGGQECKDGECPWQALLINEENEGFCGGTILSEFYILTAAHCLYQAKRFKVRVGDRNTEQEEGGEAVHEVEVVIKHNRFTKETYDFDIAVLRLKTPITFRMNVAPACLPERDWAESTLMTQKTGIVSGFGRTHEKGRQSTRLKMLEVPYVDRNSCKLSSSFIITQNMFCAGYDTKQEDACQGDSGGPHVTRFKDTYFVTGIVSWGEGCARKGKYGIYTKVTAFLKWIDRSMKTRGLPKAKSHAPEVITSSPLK

Which Kd does the source give for B1 here?
The Kd was 0.96 µM.

How did the Kd turn out when B2 was run?
The Kd was 1.2 µM.

With B3 as the binder, how does the Kd read?
Its Kd is 2.4 µM.

For B4, which Kd is on record?
Its Kd is 2.1 µM.
